Test results: patent publication US20210230570

B1: FIXa-D104N/K106S/Y155F/K247N/N249S/N260S (protein)
chain 1: YNSGKLEEFVQGNLERECMEEKCSFEEAREVFENTERTTEFWKQYVDGDQCESNPCLNGGSCKDDINSYECWCPFGFEGKNCELDVTCNIKNGRCEQFCKNSANNSVVCSCTEGYRLAENQKSCEPAVPFPCGRVSVSQTSKLTR
chain 2: VVGGEDAKPGQFPWQVVLNGKVDAFCGGSIVNEKWIVTAAHCVETGVKITVVAGEHNIEETEHTEQNRSVIRIIPHHNYSAAINKYNHDIALLELDEPLVLNSYVTPICIADKEYTNIFLKFGSGYVSGWGRVFHKGRSALVLQYLRVPLVDRATCLRSTKFTIYNNMFCAGFHEGGRDSCQGDSGGPHVTEVEGTSFLTGIISWGEECAMKGKYGIYTKVSRYVNWIKEKTKLT
B2: FIXa-R318Y/R338E/T343R/N346D/R403E/E410N (protein)
chain 1: YNSGKLEEFVQGNLERECMEEKCSFEEAREVFENTERTTEFWKQYVDGDQCESNPCLNGGSCKDDINSYECWCPFGFEGKNCELDVTCNIKNGRCEQFCKNSADNKVVCSCTEGYRLAENQKSCEPAVPFPCGRVSVSQTSKLTR
chain 2: VVGGEDAKPGQFPWQVVLNGKVDAFCGGSIVNEKWIVTAAHCVETGVKITVVAGEHNIEETEHTEQKRNVIRIIPHHNYNAAINKYNHDIALLELDEPLVLNSYVTPICIADKEYTNIFLKFGSGYVSGWGRVFHKGYSALVLQYLRVPLVDRATCLESTKFRIYDNMFCAGFHEGGRDSCQGDSGGPHVTEVEGTSFLTGIISWGEECAMKGKYGIYTKVSEYVNWIKNKTKLT
B3: FIXa-K247N/N249S/N260S/R318Y/R338E/R403E/E410N (protein)
chain 1: YNSGKLEEFVQGNLERECMEEKCSFEEAREVFENTERTTEFWKQYVDGDQCESNPCLNGGSCKDDINSYECWCPFGFEGKNCELDVTCNIKNGRCEQFCKNSADNKVVCSCTEGYRLAENQKSCEPAVPFPCGRVSVSQTSKLTR
chain 2: VVGGEDAKPGQFPWQVVLNGKVDAFCGGSIVNEKWIVTAAHCVETGVKITVVAGEHNIEETEHTEQNRSVIRIIPHHNYSAAINKYNHDIALLELDEPLVLNSYVTPICIADKEYTNIFLKFGSGYVSGWGRVFHKGYSALVLQYLRVPLVDRATCLESTKFTIYNNMFCAGFHEGGRDSCQGDSGGPHVTEVEGTSFLTGIISWGEECAMKGKYGIYTKVSEYVNWIKNKTKLT
B4: FIXa-R318Y/R338E/N346Y/R403E/E410N (protein)
chain 1: YNSGKLEEFVQGNLERECMEEKCSFEEAREVFENTERTTEFWKQYVDGDQCESNPCLNGGSCKDDINSYECWCPFGFEGKNCELDVTCNIKNGRCEQFCKNSADNKVVCSCTEGYRLAENQKSCEPAVPFPCGRVSVSQTSKLTR
chain 2: VVGGEDAKPGQFPWQVVLNGKVDAFCGGSIVNEKWIVTAAHCVETGVKITVVAGEHNIEETEHTEQKRNVIRIIPHHNYNAAINKYNHDIALLELDEPLVLNSYVTPICIADKEYTNIFLKFGSGYVSGWGRVFHKGYSALVLQYLRVPLVDRATCLESTKFTIYYNMFCAGFHEGGRDSCQGDSGGPHVTEVEGTSFLTGIISWGEECAMKGKYGIYTKVSEYVNWIKNKTKLT
B5: FIXa-R318Y/R338E/T343R/N346Y/R403E/E410N (protein)
chain 1: YNSGKLEEFVQGNLERECMEEKCSFEEAREVFENTERTTEFWKQYVDGDQCESNPCLNGGSCKDDINSYECWCPFGFEGKNCELDVTCNIKNGRCEQFCKNSADNKVVCSCTEGYRLAENQKSCEPAVPFPCGRVSVSQTSKLTR
chain 2: VVGGEDAKPGQFPWQVVLNGKVDAFCGGSIVNEKWIVTAAHCVETGVKITVVAGEHNIEETEHTEQKRNVIRIIPHHNYNAAINKYNHDIALLELDEPLVLNSYVTPICIADKEYTNIFLKFGSGYVSGWGRVFHKGYSALVLQYLRVPLVDRATCLESTKFRIYYNMFCAGFHEGGRDSCQGDSGGPHVTEVEGTSFLTGIISWGEECAMKGKYGIYTKVSEYVNWIKNKTKLT

Assays:
[1] = biological target: Antithrombin III (plasma purified human AT-III, Molecular Innovations), as AT-III/UFH complex

Chain of Factor X (FX), P00742 (P00742 whole entry, looked up): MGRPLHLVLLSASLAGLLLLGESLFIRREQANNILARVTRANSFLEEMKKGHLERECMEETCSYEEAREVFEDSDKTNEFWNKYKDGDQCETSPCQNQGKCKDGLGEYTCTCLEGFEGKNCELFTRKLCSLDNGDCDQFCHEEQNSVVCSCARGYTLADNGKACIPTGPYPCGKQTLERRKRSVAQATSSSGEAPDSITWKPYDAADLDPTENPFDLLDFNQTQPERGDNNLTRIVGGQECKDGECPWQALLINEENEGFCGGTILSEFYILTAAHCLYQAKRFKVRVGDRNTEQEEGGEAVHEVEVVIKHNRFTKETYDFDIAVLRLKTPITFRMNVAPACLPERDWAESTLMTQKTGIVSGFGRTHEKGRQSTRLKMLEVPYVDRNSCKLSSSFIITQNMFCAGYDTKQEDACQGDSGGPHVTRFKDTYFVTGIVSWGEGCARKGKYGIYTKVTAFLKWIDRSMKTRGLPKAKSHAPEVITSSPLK

Row | Protein | KM (nM); Catalytic activity of FIXa variants (KM) (Factor X (FX), P00742) [nM] | kcat of FX activation by FIXa in the Xase complex (FVIIIa, PC/PS vesicles, Ca2+) (Factor X (FX), P00742) [s⁻¹] | K0.5-mut/K0.5-wt (against Catalyst Biosciences WT FIXa) [1] | KM (Factor X (FX), P00742) [nM] | kcat/KM (Factor X (FX), P00742) [M⁻¹ s⁻¹]
1 | B1 | 68.5 | 0.5 | 35.8 |  | 
2 | B2 |  | 5.4 | > 517 | 67 | 
3 | B3 | 62.2 | 3.4 | 288 | 47.4 | 9.7e+07
4 | B4 |  | 3.4 | > 517 | 28.1 | 
5 | B5 |  | 4.6 | > 517 | 15.8 | 
